Measurements published in publication PMC5340040.
No end group written: not given here.

Key:
[1] = target: T1, CaATP-G-actin (rabbit skeletal muscle actin, monomer) (rabbit), P68135; experiment: cross-linking; competition: 6 μM Fl-LL-37 and 0-16 μM histatin-3 or histatin-5 for transglutaminase cross-linking to 4 μM CaATP-G-actin, 22 °C; SDS-PAGE visualized by fluorescence; details: remark: other sources report otherwise
[2] = target: T1, CaATP-G-actin (rabbit skeletal muscle …); experiment: cross-linking; bacterial transglutaminase (0.3-0.4 mg/ml) at 22 °C, 4 μM CaATP-G-actin or TG-G-actin with 4-8 μM peptide, 1 to 30 min, stopped by 1 mM cysteamine; 12% SDS-PAGE, Coomassie blue or fluorescence, densitometry; one series with 0-200 mM NaCl (1 min); details: remark: other sources report otherwise

percent decrease of the cross-linking of 6 μM Fl-LL-37 to 4 μM G-actin at 3 μM histatin [1] | percent decrease of the extent of cross-linking with 200 mM NaCl [2] | Binder
68% | – | DSHAKRHHGYKRKFHEKHHSHRGY [Histatin-5]
– | > 70% | DSHAKRHHGYKRKFHEKHHSHRGY (also: FAM label, position not given here) [FAM labeled histatin-5]
